Source: patent US20190359711A1

Biological target: CD3 on human pan T cells (human) (UniProt P07766)
Assay: flow cytometry, saturation binding on human pan T cells (KdT)

CD3 on human pan T cells (human), sequence (P07766 23-207 limits assumed): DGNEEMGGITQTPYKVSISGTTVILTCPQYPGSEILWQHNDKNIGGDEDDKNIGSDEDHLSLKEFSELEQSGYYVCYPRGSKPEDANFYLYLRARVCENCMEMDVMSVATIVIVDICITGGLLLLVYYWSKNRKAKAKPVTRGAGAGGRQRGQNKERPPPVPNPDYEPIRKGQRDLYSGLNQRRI

Substance: AlexaFluor488 SP34-2 anti-CD3 (antibody)
- Kd: 5.6 nM
